Source: PMC9124873 (BioImpacts : BI, 2021)

Key:
[1] = biological target: heavy chain of ranibizumab; test: ELISA
[2] = biological target: light chain of ranibizumab; test: ELISA

binding result [1]: no binding
binding result [2]: no binding
B1: recombinant human VEGF-A protein (ligand)
chain: APMAEGGGQNHHEVVKFMDVYQRSYCHPIETLVDIFQEYPDEIEYIFKPSCVPLMRCGGCCNDEGLECVPTEESNITMQIMRIKPHQGQHIGEMSFLQHNKCECRPKKDRARQENPCGPCSERRKHLFVQDPQTCKCSCKNTDSRCKARQLELNERTCRCDKPRR
